The test concerns the target cation-independent mannose-6-phosphate receptor (CIMPR). Briefly: CIMPR affinity chromatography of spent culture medium, before AEX capture.

Substance “recombinant human α-galactosidase A (rhα-Gal A) (from UniProt P06280 32-429) (enzyme)” came in with a percent able to bind CIMPR of 80%.

(Values after patent EP4793349A2.)
